# Reference: the RNAGym collection of RNA variant scans (doi:10.1073/pnas.2313332121)
# B1: TPR t1 (parent)
# chain: GACCAAUCUGCCCUCAGAGCUCGAGAACAUCUUCGGAUGCAGAGGAGGCAGGCUUCGGUGGCGCGAUAGCGCCAACGUCCUCAACCUCCAAUGCAUCCCACCACAUGAUGAUGCCUGAAGAGCCUUGGUUUUUUG
# Variants of: B1
# Assay: polymerase ribozyme fitness, log enrichment relative to wild type (log ratio); higher = more active; in vitro selection for triplet polymerase activity
# Method in brief: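 To select mutant libraries of each subunit of a heterodimeric triplet polymerase ribozyme, built by PCR and transcribed, each was annealed with a biotinylated primer, partner subunit and triplets, then incubated frozen at −7 °C. Extended constructs were gel-excised, captured on streptavidin beads and amplified by RT-PCR, in one round carried out in triplicate. Illumina sequencing of input and output libraries kept genotypes with ≥10 input reads and ≥1 read per output. Fitness is the base-2 logarithm of genotype enrichment relative to wild-type enrichment, from inverse-variance-weighted replicate averages.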
row,Variant,polymerase ribozyme fitness (log ratio)
1,C8G C11G G36U,0.581
2,G69U C73U G110A C123A,-0.661
3,C72G U112A,0.104
4,C11U U92C G127A,-3.76
5,A108U U112A,-4.85
6,C11G G122U,0.995
7,A2G C13U A41C G48C U78G A111G,-1.71
8,C3U C73U U87C C88U A111G C123A,-3.08
9,C8U A16U A66U C72G G77U C123U,-1.74
10,C12U C73U C97A G110U C115A C124G,-6.74
11,C31U C53G,-3.58
12,C49G U112G,0.00648
13,G23A A46C C124A,-5.92
14,C86U G93A,-0.143
15,A24U C123G,-3.41
16,C8G G36U A119G U133G,0.386
17,U21C G71A C101U G117A,-2.85
18,C22U G63A,-4.36
19,G57U C72G C94U G122A,-3
20,C49U G77U,0.0294
21,A29U C56U A84G C97U,-3.9
22,A46U G61C C79U,-1.59
23,G10U U14A G113C G122A,-3.62
24,U21A G69U,0.577

row,Variant,polymerase ribozyme fitness (log ratio)
1,U92G G93C G117C A121U,-5.65
2,C12A A18U C56U A68C C79U C115U A118C U131C,-6.43
3,C64U C82A C124A,1.31
4,G36U G77A G113U,-3.33
5,A26G C49G,-2.93
6,C4G A27U G36C C49G C79U C123G,-5.37
7,C8G A91C G122A,-0.3
8,G19C G42U G45C C72A C79A C82G,-3.62
9,C97U A118U,-2.1
10,C8U G93A C94U A118U,-0.514
11,A16U A29U G36A A43C G44U C53A G63C U112C,-5.08
12,C49G C73G C89U G113A G122C,-4.49
13,U7C C8G G45A C53U G63A U87A,-1.06
14,C12G U96C,0.043
15,G51U C79G C94A C124A,-1.56
16,A16G U55A G60A G93U C102U U130G,-3.39
17,A18C C49A G60U U106A A111C,-5.37
18,G71C G110C U126C,-7.04
19,C62A G128C,-3.8
20,G51C G57C C73A G77U U78G,-3.02
21,C3U C49A A84C C104U G120U,-0.46
22,C64U C101U,0.0607
23,C34U G113A C124A,-5.17
24,G117C U130C,-2.84

row,Variant,polymerase ribozyme fitness (log ratio)
1,C34A C85U A118U U130A U132C,-3.6
2,G42A G120U,-1.82
3,G58C G60U G93U U96G,-1.73
4,A6U A24C C28A G47U G65C C102G G107A G120A G127U,-6.59
5,U9G C28A U133A,-4.24
6,U21G G39C A41G C115A,-2
7,C13A G63A C72U G127C,-3.45
8,C3U C104U,-0.0507
9,C34U G35U,-4.9
10,C3U G69C U87G C124A,0.486
11,C49A C56G G69U C72A,-3.13
12,G60A C86A U131C,-1.16
13,G61C C79U,-1.46
14,C11U G60A U78C A95U U112A U116G,-3.18
15,A27U A95C,-4.26
16,G47U U78C A111U,-4.07
17,U55G C64U A90C U92G C101A,-3.82
18,G36A G45C C49A C73A,-0.979
19,G42C G117A,-2.18
20,C72U G110C G128U,-6.47
21,G17U U67G C73A U78C G93U C98G U116C,-6.28
22,C89U A119U,-2.2
23,G63A A66U,-2.44
24,C49A G61C C80G C104A G117U,-8.34

row,Variant,polymerase ribozyme fitness (log ratio)
1,C4U A74U,-1.1
2,U59A C70A C102A,-5.39
3,U38A A90U,-2.22
4,C40A G60A G93A A121U,1
5,C49U A95G U112A,0.0263
6,C8U C13U A46C U59A G71U C79G A83G U109G U132A,-7.26
7,C11U G122A G128C U131C,-0.489
8,C13G A18C U38G C88A A121U,-3.5
9,C4G A66G C72U C80U C123A,-2.88
10,U9G G45C C79A U130C,-2.2
11,G47U G61C A90U G117C,-6.8
12,C20G G61A A90C A95U,-3.88
13,C13U U54A,1.21
14,G69C C104A U106C U129A,-5.53
15,C8G A68U G77C G120C,-7.19
16,G47U U54C C56A C80U C124G,-1.14
17,A16C C64U U78C U87A G113U U116A,-7.76
18,U14A U54A,-2.74
19,C15U C76G,-1.31
20,U55G U96A C115U,-2.35
21,C49U U126A,-1.95
22,C12G A29U,-1.54
23,A18U C49G,-3.54
24,C22A G44C U112A,-3.24

row,Variant,polymerase ribozyme fitness (log ratio)
1,C8G C12U C15U G25A A27U G42C G61A U78C U112A U125A U131A,-6.3
2,U92C G128C U130A,-3.52
3,A29G C53G C62U U106A G117C,-4.22
4,C12U C72U A83U C99U,-3.62
5,C53A C97A,-4.2
6,A43U U78C,-1.53
7,C15A G77U G122A C123A,-2.19
8,A84U U129A,-1.65
9,C72U C124U,0.818
10,G48C C49G C82U C124A G127C U133C G135U,-0.601
11,C13A G45C A84C A91C,-4.71
12,C85A G117C,-5.07
13,A27G A103U U112A U130C,-5.43
14,C72A G117A U126A,-1.78
15,C70G C94G C123A,-3.58
16,G48U G69C C86G G113U,-6.36
17,A5C C13U,-0.876
18,A41U C80A,-5.17
19,C80G A100C U131A,-5.8
20,G36U G47U U59A G117C,-6.9
21,U32C G71U G110A C123U U131G,-4.9
22,C11A C12U A37G U78A U131A,-1.88
23,C34A C124G U130G,-0.7
24,C72U C79U C82A,-0.964

row,Variant,polymerase ribozyme fitness (log ratio)
1,C22G C114A,-3.01
2,C102U U132C,-1.91
3,C88U C97A U109G,-6.35
4,C3U A6U,0.0323
5,U7G C15A A16G C53A C64U,-1.35
6,C49A G63U C97G U132A,-6.24
7,A16U C89G C123G,-1.67
8,A50C G71U U87A,-1.95
9,A50U C115G A121C G128U,-4.2
10,C49A U78G U87G A121G G128U,-0.14
11,C12U G47U G69A G110C U112G,-7.15
12,G39U C88U,-0.766
13,A74U A118U,-0.576
14,A26U U96A C97A C124U,-5.98
15,C94U G128C,-4.18
16,U59C A111C G128C,-3.24
17,U38C U112A,1.08
18,U33A A119G G120A,-3.37
19,A26C G35A G61U C98G C124U,-6.78
20,A83C A100U G120A U130C,-3.75
21,U9A C49U G110A,-1.43
22,G69A C76A C123U,-5
23,C28A A75G C86G C123U,-5.57
24,C15A C123A,-1.02

row,Variant,polymerase ribozyme fitness (log ratio)
1,G61U U112A U130A,1.31
2,C11U C79G G93U,-3.61
3,A83G A118U,0.587
4,G10A U131A,-0.339
5,G10A C97G,-3.95
6,U9G A26G G45U C73U C99U U112A,-4.85
7,A43C G44C G71C A118U U133G,-1.6
8,A41U C49A A50U U55C G60U C115U,-5.28
9,C62G A90G C97U A111C,-1.19
10,A29U A74C,-1.73
11,G36U G60C A100U,-2.77
12,U59A G60U C89G C97U,-2.98
13,A5U A6G A46C C115G,-2.4
14,U78G C85G C88A A111G C114A,-6.16
15,A46U C73U G110A,-2.67
16,A24G G57A G77U,-2.15
17,G93A G120U,-0.0719
18,A119U C124A,1.28
19,C8A A16C G47A C70U G110A U131A,-3.91
20,G63C C98G U116A C124G,-5.39
21,A37C C70U,-0.649
22,G69C C86U,-1.37
23,C31U C72G G120C,-5.23
